The record followed here is patent US20130260436A1, “Methods of Identifying and Characterizing Natural Product Gene Clusters” (Victoria LInk Limited, priority 2010, published 2013).

The nature of data set [1]: BpsA indigoidine synthesis kinetics, L-Gln as variable substrate. The format is biochemical. How it is done: Analysis of BpsA reaction rate over a replicate two fold serial dilution series (0.78 μM-16 mM) of L-gln was conducted at both pH 7.8 (sodium phosphate) and 8.0 (Tris-Cl). […] As such the ΔA590 was expected to be directly proportional to the concentration of holo-BpsA present in a reaction. This assumption was experimentally verified by monitoring reaction velocity at ten different concentrations of holo-BpsA (360 nM-1.14 μM) at constant L-gln/ATP concentrations; as shown in FIG. 6C the relationship between enzyme concentration and velocity is linear within this range (R^2=0.989). Owing to the lack of an extinction co-efficient for indigoidine in water, coupled with formation of insoluble precipitate, we were unable to derive a kcat value for BpsA. We were however able to discern a reproducible maximum velocities which are expressed with the units ΔA590/s. These parameters were subsequently employed for the derivation of PPTase kinetics as outlined in section 4.11.
Pre-activation mix to bring about conversion of apo to holo BpsA contained 3.4 μM apo-BpsA, 0.25 μM PcpS, 10 mM MgCl2, 100 μM CoA and 50 mM buffer (sodium phosphate buffer pH 7.8 or Tris-Cl pH 8.0) and was incubated for 20 min at 30° C.
A590 measurements were then taken every 6-10 s for ten minutes using an envision EnSpire® microplate reader. The resulting data was visualized and velocities derived using the Slope function of Microsoft Excel®. Kinetic parameters were derived from velocity values using Graphpad Prism®. For examination of the relationship between BpsA concentration and reaction velocity, a triplicate two fold serial dilution series of pre-activated BpsA was established in a 96 wp in a final volume of 50 μL, 100 μl reaction mix without L-gln or ATP was then added to each well. […] A590 values were then recorded and data analysed as previously described.

Data set [2] in a line: BpsA indigoidine synthesis kinetics with respect to ATP (values used in PPTase unit conversion). The format is biochemical. The text has this: The raw data input into SigmaPlot for derivation of kinetic parameters for the PPTases PcpS and PP1183 was maximum change in indigoidine (ind) synthesis reaction rate (change in gradient per second) vs. concentration of CoA present in the reaction. The Vmax values given by SigmaPlot therefore had the units “Change in gradient per second” The assumptions made and calculations used to convert this standard enzyme kinetics units are given below. […] As such the assumption can be made that reaction rate for this enzyme is directly proportional to the concentration of active enzyme according to the equation:
For the reactions used in derivation of kinetic parameters of PPTases, [BpsA]=[E]=1.64 uM. [S]=[ATP]=1 mM.

Data set [3] in a line: BpsA coupled assay for PPTase kinetic parameters, CoA as variable substrate. The format is biochemical. The following applies: BpsA fixed at 0.83 μM. The text has this:
Having established a linear relationship between concentration of holo-BpsA and the apparent rate of indigoidine synthesis in aqueous solution, we next wanted to test whether it was possible to evaluate PPTase activity by using acceleration of the rate of indigoidine synthesis as a measure of the rate of 4′-PP attachment to apo-BpsA. Replicate solutions containing PPTase and all of the substrates necessary for both phosphopantetheinylation and indigoidine synthesis were established using a twofold serial dilution series of CoA (0.024-50 μM) in ninety six well plates. Reactions were initiated by addition of 0.83 μM BpsA each well of a dilution series, and absorbance at 590 nm was measured continuously. Under these conditions, the pigment synthesis reaction undergoes an initial acceleration phase as apo-BpsA is converted to holo-BpsA by the PPTase. […]
A590 values were then recorded as previously described. […] A590 values were then recorded as previously described. For derivation of PPTase velocity values, the slope between every 2-8 data points was measured across the entire data range with the resulting values forming a new data set (BpsA velocity). The slope between every 2-8 points in the BpsA velocity data set was then determined using the slope function of Microsoft Excel and the maximum value from the resulting data set for each reaction taken as a measure of PPTase velocity. […]

In data set [4] the target is T1, BpsA (Streptomyces lavendulae, UniProt Q1MWN4).
T1 construct: 6His; made in house; host or cells: E. coli
Description: BpsA coupled assay for PPTase kinetic parameters, BpsA as variable substrate. The data set is classed as biochemical, S. lavendulae ATCC 11924. Conditions: CoA fixed at 25 μM. The text has this: Having established a linear relationship between concentration of holo-BpsA and the apparent rate of indigoidine synthesis in aqueous solution, we next wanted to test whether it was possible to evaluate PPTase activity by using acceleration of the rate of indigoidine synthesis as a measure of the rate of 4′-PP attachment to apo-BpsA. […] Under these conditions, the pigment synthesis reaction undergoes an initial acceleration phase as apo-BpsA is converted to holo-BpsA by the PPTase. […]
A590 values were then recorded as previously described. […] A590 values were then recorded as previously described. For derivation of PPTase velocity values, the slope between every 2-8 data points was measured across the entire data range with the resulting values forming a new data set (BpsA velocity). The slope between every 2-8 points in the BpsA velocity data set was then determined using the slope function of Microsoft Excel and the maximum value from the resulting data set for each reaction taken as a measure of PPTase velocity. […] For fast reactions smaller increments could be used, however for slow reactions noise from plate reader noise became a significant factor in point to point variation and created artificial fluctuations in measured slopes if too few points were used in slope determination. […]

In data set [5] the test system is BpsA. The data set can be described thus: Qualitative PPTase activity in vivo by co-expression with a BpsA reporter in E. coli. The format is cell-based, S. lavendulae ATCC 11924. The following applies: E. coli BL21(DE3), auto-induction agar plates. How it is done:
Single colonies of E. coli co-expressing BpsA and an activating PPTase were inoculated onto pigment production agar plate using a sterile pipette tip and incubated for 16 hours at 37° C. Protein expression was then induced by IPTG addition as described in Section 4.9.2 and the plate incubated for a further 24 h at room temperature (18-25° C.).
We constructed plasmids that allowed IPTG regulated co-expression of a candidate PPTase and BpsA in E. coli BL21(DE3). To enable IPTG regulated co-expression the BpsA gene of S. lavendulae ATCC 11924 was cloned into pCDFDUET-1 (Novagen) and three candidate PPTases into the (origin of replication compatible) vector pET28a(+). […] In contrast, if IPTG was absent from the medium viable co-transformed cells were recovered with good efficiency (not shown). […] In order to circumvent this problem we employed auto-induction agar plates, prepared by addition of 1.5% agar to Studier ZYP-5052 auto-induction medium (Studier 2005). Use of auto-induction agar plates allowed for both rapid growth and efficient induction of pigment production following extended incubation at room temperature.

B1: BpsA: single module NRPS protein of S. lavendulae ATCC11924 that converts L-glutamine into indigoidine; SEQ ID NO: 3 (protein, listed as Streptomyces lavendulae)
chain: MTLQETSVLEPTLQGTTTLPGLLAQRVAEHPEAIAVAYRDDKLTFRELASRSAALADYLEHLGVSADDCVGLFVEPSIDLMVGAWGILNAGAAYLPLSPEYPEDRLRYMIENSETKIILAQQRLVSRLRELAPKDVTIVTLRESEAFVRPEGTEAPAARSARPDTLAYVIYTSGSTGKPKGVMIEHRSIVNQLGWLRETYAIDRSKVILQKTPMSFDAAQWEILSPANGATVVMGAPGVYADPEGLIETIVKHNVTTLQCVPTLLQGLIDTEKFPECVSLQQIFSGGEALSRLLAIQTTQEMPGRALINVYGPTETTINSSSFPVDPADLDEGPQSISIGSPVHGTTYHILDKETLKPVGVGEIGELYIGGIQLARGYLHRDDLTAERFLEIELEEGAEPVRLYKTGDLGQWNNDGTVQFAGRADNQVKLRGYRVELDEISLAIENHDWVRNAAVIVKNDGRTGFQNLIACIELSEKEAALMDQGNHGSHHASKKSKLQVKAQLSNPGLRDDAELAARPAFDLEGAEPTPEQRARVFARKTYRFYEGGAVTQADLLGLLGATVTAGYSRKAADLAPAELGQILRWFGQYISEERLLPKYGYASPGALYATQMYFELEGVGGLKPGYYYYQPVRHQLVLISEREATGKATAQIHFIGKKSGIEPVYKNNILEVLEIETGHMVGLFEQILPAYGLDIHDRAYEPAVKDLLDVADEDYYLGTFELVPHAGARDDQAEVYVQTHGGKVAGLPEGQYRYENGELTRFSDDIVLKKHVIAINQSVYQAASFGISVYSRAEEEWLKYITLGKKLQHLMMNGLNLGFMSSGYSSKTGNPLPASRRMDAVLGANGVDSAPMYFFVGGRISDEQIGHEGMREDSVHMRGPAELIRDDLVSFLPDYMIPNRVVVFDRLPLSANGKIDVKALAASDQVNAELVERPFVAPRTETEKEIAAVWEKALRRENASVQDDFFESGGNSLIAVGLVRELNARLGVSLPLQSVLESPTIEKLARRLEREVAQESSRFVRLHAETGKARPVICWPGLGGYPMNLRSLAGEIGLGRSFYGVQSYGINEGETPYETITEMAKKDIEALKEIQPAGPYTLWGYSFGARVAFETAYQLEQAGEKVDNLFLIAPGSPKVRAENGKVWGREASFANRGYTTILFSVFTGTISGPDLDRCLETVTDEASFAEFISELKGIDVDLARRIISVVGQTYEFEYSFHELAERTLQAPISIFKAVGDDYSFLENSSGYSAEPPTVIDLDADHYSLLREDIGELVKHIRYLLGE
The term Km denotes the substrate concentration at which the rate is half of its maximum. With B1, the Km was 2430 µM in data set [1] (NaPh pH 7.8, ATP 2.5 mM); 3330 µM in data set [1] (Tris-Cl pH 8.0, ATP 2.5 mM); 11100 µM in data set [2] (ATP as substrate). The Vmax in data set [1] (NaPh pH 7.8, ATP 2.5 mM) is reported as 1.8 +/− 0.03 (ΔA590 · S^−1 · μM^−1) × 10^−2; in data set [1] (Tris-Cl pH 8.0, ATP 2.5 mM), 6.5 +/− 0.1 (ΔA590 · S^−1 · μM^−1) × 10^−2. Further, the “Kcat (BpsA)” value in data set [2] (value used for unit conversion of PPTase kinetics) came out at 4.0223 s⁻¹.

B2: Sfp: PPTase of B. subtilis subsp. spizizenii ATCC6633 (protein, UniProt P39135 1-224, looked up)
4'-phosphopantetheinyl …: MKIYGIYMDRPLSQEENERFMSFISPEKREKCRRFYHKEDAHRTLLGDVLVRSVISRQYQLDKSDIRFSTQEYGKPCIPDLPDAHFNISHSGRWVICAFDSQPIGIDIEKTKPISLEIAKRFFSKTEYSDLLAKDKDEQTDYFYHLWSMKESFIKQEGKGLSLPLDSFSVRLHQDGQVSIELPDSHSPCYIKTYEVDPGYKMAVCAAHPDFPEDITMVSYEELL
A word on the kcat: it is the maximal rate divided by the concentration of active sites. Turning to B2, in data set [3], the Km was found to be 0.62 µM and the kcat amounted to 0.00213 ± 6.7e-05 s⁻¹. In addition, in the data set with BpsA [4], the Km came to 3.3 µM and the kcat turned out to be 0.0357 ± 0.00067 s⁻¹. The “Indigoidine production on co-expression with BpsA” value in the data set with BpsA [5] is “substantial production of indigoidine”.
